Reference: paper PMC9357037

Molecular target: TEMPOL-122-αS (N122C α-synuclein spin-labelled at position 122) (UniProt P37840)
Test: CW-EPR titration (site-directed spin labelling); apparent; TEMPOL-122-αS kept at 50 μM, poly-cation titrated at increasing molar ratios; LLPS buffer without crowder (no PEG); 25 °C; band III/band II amplitude fitted to an approximate model with n identical and independent binding sites

In the case of poly-L-lysine of 100 residues (peptide), the Kd is reported as 5 µM.
